IntAct's records for PubMed 19696174

B1: Age-related maculopathy susceptibility protein 2 (Homo sapiens), P0C7Q2 (parent)
chain: MLRLYPGPMVTEAEGKGGPEMASLSSSVVPVSFISTLRESVLDPGVGGEGASDKQRSKLSLSHSMIPAAKIHTELCLPAFFSPAGTQRRFQQPQHHLTLSIIHTAAR
partner: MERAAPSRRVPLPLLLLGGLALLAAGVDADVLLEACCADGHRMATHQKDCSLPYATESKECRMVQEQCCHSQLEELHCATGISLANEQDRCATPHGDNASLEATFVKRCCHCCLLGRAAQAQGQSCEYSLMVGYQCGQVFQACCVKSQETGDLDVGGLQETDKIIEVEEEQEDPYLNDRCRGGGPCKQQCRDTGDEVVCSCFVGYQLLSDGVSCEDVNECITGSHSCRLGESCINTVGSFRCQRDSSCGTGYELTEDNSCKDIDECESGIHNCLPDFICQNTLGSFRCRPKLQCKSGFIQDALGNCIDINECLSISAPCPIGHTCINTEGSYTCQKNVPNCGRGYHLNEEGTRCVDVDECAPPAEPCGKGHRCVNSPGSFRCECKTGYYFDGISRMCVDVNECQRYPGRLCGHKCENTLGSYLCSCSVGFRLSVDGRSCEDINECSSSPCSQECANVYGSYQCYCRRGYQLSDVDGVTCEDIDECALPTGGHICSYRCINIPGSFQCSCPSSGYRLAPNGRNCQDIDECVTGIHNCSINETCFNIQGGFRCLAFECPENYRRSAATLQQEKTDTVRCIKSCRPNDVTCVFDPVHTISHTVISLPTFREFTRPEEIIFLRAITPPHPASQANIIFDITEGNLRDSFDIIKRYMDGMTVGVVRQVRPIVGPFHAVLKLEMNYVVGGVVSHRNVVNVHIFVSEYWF
B2: Age-related maculopathy susceptibility protein 2 (Homo sapiens), P0C7Q2 (parent)
chain: B1 chain

Key:
[1] = variants of: B1; conditions: with fbln1_human FBLN1, P23142
[2] = variants of: B2; conditions: with psg11_human PSG11, Q9UQ72
[3] = variants of: B2; conditions: with co1a1_human COL1A1, P02452
finc_human FN1, P02751 = variants of: B2; conditions: with finc_human FN1, P02751
[4] = variants of: B2; conditions: with co4a2_human COL4A2, P08572
[5] = variants of: B2; conditions: with emil2_human EMILIN2, Q9BXX0
[6] = variants of: B2; conditions: with hmcn1_human HMCN1, Q96RW7
psg9_human PSG9, Q00887 = variants of: B2; conditions: with psg9_human PSG9, Q00887

Measured: effect of a mutation on the interaction

Chain of psg9_human PSG9, Q00887 (Q00887 whole entry): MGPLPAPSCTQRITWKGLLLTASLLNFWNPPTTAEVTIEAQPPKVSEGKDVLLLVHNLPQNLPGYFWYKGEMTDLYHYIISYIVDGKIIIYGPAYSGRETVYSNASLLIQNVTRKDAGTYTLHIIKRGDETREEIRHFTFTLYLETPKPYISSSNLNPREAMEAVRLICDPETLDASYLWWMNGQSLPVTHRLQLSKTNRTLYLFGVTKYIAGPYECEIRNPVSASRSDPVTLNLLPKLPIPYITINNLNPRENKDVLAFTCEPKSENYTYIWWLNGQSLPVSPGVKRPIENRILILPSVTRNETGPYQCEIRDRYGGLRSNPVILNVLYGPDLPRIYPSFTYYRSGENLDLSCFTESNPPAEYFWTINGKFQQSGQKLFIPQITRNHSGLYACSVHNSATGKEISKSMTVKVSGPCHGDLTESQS
Chain of psg11_human PSG11, Q9UQ72 (Q9UQ72 whole entry): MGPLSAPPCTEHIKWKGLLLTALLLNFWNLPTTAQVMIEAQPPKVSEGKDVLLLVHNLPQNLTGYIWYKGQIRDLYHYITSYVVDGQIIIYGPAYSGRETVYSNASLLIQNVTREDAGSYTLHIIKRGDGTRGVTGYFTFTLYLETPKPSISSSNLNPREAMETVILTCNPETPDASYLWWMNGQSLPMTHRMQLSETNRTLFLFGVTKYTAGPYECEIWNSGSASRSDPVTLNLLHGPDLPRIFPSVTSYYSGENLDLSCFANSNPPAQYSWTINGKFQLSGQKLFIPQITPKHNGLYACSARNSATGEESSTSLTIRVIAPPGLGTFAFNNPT
Chain of finc_human FN1, P02751 (P02751 whole entry): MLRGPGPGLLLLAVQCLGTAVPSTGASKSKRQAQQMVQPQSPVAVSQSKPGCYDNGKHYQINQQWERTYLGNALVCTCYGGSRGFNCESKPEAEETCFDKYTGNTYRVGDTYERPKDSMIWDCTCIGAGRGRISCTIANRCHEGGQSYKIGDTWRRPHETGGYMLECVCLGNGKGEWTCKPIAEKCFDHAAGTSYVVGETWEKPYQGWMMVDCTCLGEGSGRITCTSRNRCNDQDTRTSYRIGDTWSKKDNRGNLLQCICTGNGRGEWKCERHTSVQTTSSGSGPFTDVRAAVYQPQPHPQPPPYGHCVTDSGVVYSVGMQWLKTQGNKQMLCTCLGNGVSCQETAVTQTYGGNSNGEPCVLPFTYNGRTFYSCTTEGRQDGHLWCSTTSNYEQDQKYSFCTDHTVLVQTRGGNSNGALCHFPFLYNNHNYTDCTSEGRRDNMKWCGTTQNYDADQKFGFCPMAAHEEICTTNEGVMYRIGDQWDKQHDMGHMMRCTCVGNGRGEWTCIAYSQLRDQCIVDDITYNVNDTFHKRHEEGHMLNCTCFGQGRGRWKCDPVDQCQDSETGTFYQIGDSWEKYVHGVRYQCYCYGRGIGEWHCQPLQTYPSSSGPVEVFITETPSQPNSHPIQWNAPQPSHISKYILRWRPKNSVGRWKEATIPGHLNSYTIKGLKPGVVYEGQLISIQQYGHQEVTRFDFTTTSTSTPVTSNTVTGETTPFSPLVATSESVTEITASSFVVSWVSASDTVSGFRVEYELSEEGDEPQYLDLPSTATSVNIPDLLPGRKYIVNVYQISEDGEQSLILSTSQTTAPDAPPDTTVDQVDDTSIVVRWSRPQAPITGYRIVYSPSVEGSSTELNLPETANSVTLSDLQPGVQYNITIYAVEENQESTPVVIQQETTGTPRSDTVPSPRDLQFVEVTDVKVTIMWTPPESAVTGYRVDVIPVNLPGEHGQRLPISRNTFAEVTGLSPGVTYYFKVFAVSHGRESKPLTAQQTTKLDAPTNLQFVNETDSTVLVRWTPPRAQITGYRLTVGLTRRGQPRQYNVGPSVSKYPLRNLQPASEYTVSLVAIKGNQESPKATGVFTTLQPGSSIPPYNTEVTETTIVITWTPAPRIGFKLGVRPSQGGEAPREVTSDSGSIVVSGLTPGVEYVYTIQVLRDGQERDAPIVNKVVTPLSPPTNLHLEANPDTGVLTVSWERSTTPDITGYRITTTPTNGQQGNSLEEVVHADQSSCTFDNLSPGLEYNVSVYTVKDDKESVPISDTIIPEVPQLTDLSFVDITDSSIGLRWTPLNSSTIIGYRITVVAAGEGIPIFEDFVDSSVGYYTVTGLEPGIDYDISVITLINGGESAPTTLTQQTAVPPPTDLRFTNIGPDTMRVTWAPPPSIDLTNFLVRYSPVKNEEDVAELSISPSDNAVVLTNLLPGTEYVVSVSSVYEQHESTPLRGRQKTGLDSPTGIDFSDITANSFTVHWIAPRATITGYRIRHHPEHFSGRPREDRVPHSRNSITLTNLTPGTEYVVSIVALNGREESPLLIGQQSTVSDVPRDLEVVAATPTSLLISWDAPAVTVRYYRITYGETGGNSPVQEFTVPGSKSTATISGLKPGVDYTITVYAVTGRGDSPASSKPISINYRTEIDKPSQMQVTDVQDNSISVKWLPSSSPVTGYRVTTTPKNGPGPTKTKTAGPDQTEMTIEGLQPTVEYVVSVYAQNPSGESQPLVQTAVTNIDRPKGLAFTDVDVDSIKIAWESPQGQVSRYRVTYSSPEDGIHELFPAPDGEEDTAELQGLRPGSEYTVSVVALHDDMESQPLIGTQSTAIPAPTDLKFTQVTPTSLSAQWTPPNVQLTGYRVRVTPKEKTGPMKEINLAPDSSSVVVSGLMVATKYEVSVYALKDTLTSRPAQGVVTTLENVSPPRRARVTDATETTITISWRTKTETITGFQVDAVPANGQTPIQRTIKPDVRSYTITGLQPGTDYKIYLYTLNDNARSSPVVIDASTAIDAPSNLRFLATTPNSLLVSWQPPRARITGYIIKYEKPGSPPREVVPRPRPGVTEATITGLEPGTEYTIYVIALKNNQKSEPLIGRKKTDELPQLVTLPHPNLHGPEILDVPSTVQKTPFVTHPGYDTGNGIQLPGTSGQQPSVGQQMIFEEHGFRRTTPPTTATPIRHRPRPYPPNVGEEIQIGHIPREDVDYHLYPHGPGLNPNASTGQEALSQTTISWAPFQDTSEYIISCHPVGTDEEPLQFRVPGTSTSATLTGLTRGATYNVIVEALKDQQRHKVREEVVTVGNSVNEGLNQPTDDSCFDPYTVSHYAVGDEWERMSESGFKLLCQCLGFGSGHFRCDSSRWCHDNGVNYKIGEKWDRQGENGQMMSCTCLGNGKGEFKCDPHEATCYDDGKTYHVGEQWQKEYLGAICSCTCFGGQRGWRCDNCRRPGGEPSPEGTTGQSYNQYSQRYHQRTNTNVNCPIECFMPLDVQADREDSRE
Chain of emil2_human EMILIN2, Q9BXX0 (Q9BXX0 whole entry): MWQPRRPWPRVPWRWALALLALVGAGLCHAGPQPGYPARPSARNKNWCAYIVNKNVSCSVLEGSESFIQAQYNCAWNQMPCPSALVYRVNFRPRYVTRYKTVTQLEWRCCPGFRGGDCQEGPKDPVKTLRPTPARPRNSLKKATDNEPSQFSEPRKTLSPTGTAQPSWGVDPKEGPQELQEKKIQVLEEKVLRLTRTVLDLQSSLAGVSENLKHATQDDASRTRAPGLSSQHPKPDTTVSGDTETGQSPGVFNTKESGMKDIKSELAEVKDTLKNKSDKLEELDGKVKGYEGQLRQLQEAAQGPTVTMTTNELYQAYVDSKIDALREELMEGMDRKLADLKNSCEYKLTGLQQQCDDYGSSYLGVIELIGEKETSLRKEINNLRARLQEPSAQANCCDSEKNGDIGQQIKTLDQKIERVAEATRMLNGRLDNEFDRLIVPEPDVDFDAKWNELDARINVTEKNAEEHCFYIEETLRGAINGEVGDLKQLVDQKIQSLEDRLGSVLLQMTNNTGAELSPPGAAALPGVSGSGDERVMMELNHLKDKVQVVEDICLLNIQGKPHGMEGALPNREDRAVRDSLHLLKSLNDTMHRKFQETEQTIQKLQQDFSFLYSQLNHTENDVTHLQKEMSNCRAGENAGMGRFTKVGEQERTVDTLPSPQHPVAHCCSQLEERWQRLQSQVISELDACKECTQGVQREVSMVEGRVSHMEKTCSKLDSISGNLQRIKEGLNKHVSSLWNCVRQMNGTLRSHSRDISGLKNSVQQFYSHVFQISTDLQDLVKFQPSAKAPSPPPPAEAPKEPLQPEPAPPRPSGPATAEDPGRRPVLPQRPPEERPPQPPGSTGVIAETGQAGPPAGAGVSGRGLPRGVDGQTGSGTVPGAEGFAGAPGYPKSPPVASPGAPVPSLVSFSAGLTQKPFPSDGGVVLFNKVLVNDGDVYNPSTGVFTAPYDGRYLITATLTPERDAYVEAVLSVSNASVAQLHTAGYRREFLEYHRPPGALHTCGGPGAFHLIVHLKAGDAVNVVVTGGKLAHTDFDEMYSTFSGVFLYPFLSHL

MLRLYPGPMVTEAEGKGGPEMASLSSSVVPVSFISTLRESVLDPGVGGEGASDKQRSKLSLSHSMIPASKIHTELCLPAFFSPAGTQRRFQQPQHHLTLSIIHTAAR [A69S]
with no effect: [1]

MLRLYPGPMVTEAEGKGGPEMASLSSSVVPVSFISTLRESVLDPGVGGEGASDKQRSKLSLSHSMIPASKIHTELCLPAFFSPAGTQRRFQQPQHHLTLSIIHTAAR [A69S]
not listed: [1]
with no effect: all other assays above
